Common to all, as to assay: cell-based or functional assay
Experiment [1] deals with HA of influenza A/Swine/Iowa/15/30 (H1N1) virus (influenza A/Swine/Iowa/15/30 (H1N1) virus).
The target in experiment [2] is HA of influenza A/Weiss/43 (H1N1) virus (influenza A/Weiss/43 (H1N1) virus).
The target of experiment [3] is HA of A/Mexico/4108/09 (2009 A (H1N1)) virus (influenza A/Mexico/4108/2009 (H1N1) virus).
The target in experiment [4] is HA of influenza A/USSR/92/77 (H1N1) virus (influenza A/USSR/92/77 (H1N1) virus).

Bounds are passed on as bounds.

In experiment [1], mAb 1F1 (antibody) gave a Specific HAI activity of 0.04 µg/mL. The same substance had a neutralizing activity, specific activity in experiment [2] of 1.8 µg/mL. In experiment [3], this substance had an HAI, specific activity of indicated mAb above 5 µg/mL and a Neut Ab, specific activity of indicated mAb above 5 µg/mL. The neutralizing activity, specific activity in experiment [4] turned out to be 0.88 µg/mL.

The values are drawn from patent US20120100142A1.
